1 molecule from US20150307599A1 (GARVAN INSTITUTE OF MEDICAL RESEARCH, published 2015) can be followed below.

One test addresses T1, 1p28-ALRHYINLIT
T1 construct: NPY residues 23-32; also called Peptide 1p28 (10 mer shifting across NPY)
T1 peptide: ALRHYINLIT-NH2
In words: indirect ELISA, peptide coated on the plate (20 µg/mL), MAb 5E12-B7 at 1 µg/mL, O.D. 450 nm. The protocol:
(§1) ELISA was used to map the reactivity of purified MAb 5E12-B7 against the peptides described in Table 3. Briefly, ELISA microwell plates (96-well Maxisorp, Nunc) were coated overnight at 4° C. with 50 μL of mapping peptides (Table 3) diluted to 20 μg/mL in carbonate coating buffer (CCB). Between each of the following steps, microwell plates were washed three times with PBST using a plate washer (BioTek). Coated wells were blocked with 200 μL PBS containing 5% w/v skim milk (Diploma). Blocked wells were incubated for 1 hr with 50 μL of MAb 5E12-B7 diluted to 1 μg/mL in skim milk/PBST. Wells were then incubated for 1 hr with 50 μL Peroxidase-conjugated AffiniPure F(ab)2 fragment goat anti-mouse secondary antibody (Jackson) diluted 1:5000 in skim milk/PBST. Ig binding was detected by incubation of wells with 50 μL TMB substrate (Becton Dickinson). Substrate reaction was stopped after 15 min with 50 μL 1M H₂SO₄ and O.D. 450 nm was measured.

The next test has as its target T2, 1p30-RHYINLITRQ
T2 construct: NPY residues 25-34; also called Peptide 1p30 (10 mer shifting across NPY)
T2 peptide: RHYINLITRQ-NH2
Described as above. The protocol: as §1

A further test concerns the target T3, NPY (mouse NPY, Phoenix) (mouse, C-terminal amide (-NH2)).
T3 construct: 36-residue whole peptide bought from Phoenix Peptides; also called mNPY; neuropeptide Y
Nature of the test: SPR (Biacore 2000), biotinylated MAb on SA chip, peptide in solution. How it is done: (§2) Epitope mapping and determination of the affinity of MAb 5E12-B7 was also performed using a Biacore 2000 unit (GE Healthcare). Briefly, purified MAb 5E12-B7 was biotinylated as described above, except that the biotinylation reaction was performed at a 20:1 molar ratio of biotin:Ig. An SA-Chip (GE Healthcare) was docked into the Biacore 2000 unit and HBS-EP buffer (GE) was allowed to run over all 4 flow channels at 40 μL/min until signal had stabilized. The flow path was then switched to channel 4 only and HBS-EP containing 60 μg/mL biotinylated antibody was injected at 40 μL/min for 5 min to couple MAb 5E12-B7 to the chip via biotin-streptavidin binding. HBS-EP buffer was then run over channel 4 at 40 μL/min for over 30 min to remove all uncoupled Ig from the Biacore system then the flow path was changed to pass through all 4 flow channels. Association and dissociation of the peptides in Table 3 was measured using the Biacore Application Wizard. In each case, a baseline was established by passing HBS-EP over all 4 channels at 40 μL/min for 1 min before association was measure by injection of peptide (diluted to 1, 10, 100 or 1000 nM in HBS-EP) at 40 μL/min for 5 min. Dissociation was measured by allowing HBS-EP to pass over all 4 channels at 40 μL/min for 30 min. The kd, kₐ and KD were determined for each peptide by curve fitting using the BIAevalutation software.
(§3) The affinity of MAb 5E12-B7 to NPY, PYY and PP peptides was measured using a Biacore-2000 (GE-healthcare). Biotinylated MAb was loaded onto a single channel of a streptavidin chip, and dilute samples (1 nM-1 μM) of NPY, mPYY, hPYY, mPP and hPP were then run over all four channels of the chip to obtain blank-subtracted readings for peptide on and off-rates. Using this method, significant and/or detectable binding of MAb 5E12-B7 to NPY, mPYY and hPYY was detected. In contrast, no significant and/or detectable binding to mPP and hPP could be detected.

Another test concerns the target T4, human PYY (Phoenix) (human, C-terminal amide (-NH2)).
T4 construct: 36-residue whole peptide; also called hPYY
The description is as above. How it is done:
as §2, §3

Where no end group is shown, it is not given here.

T4 sequence (peptide, as listed by the source): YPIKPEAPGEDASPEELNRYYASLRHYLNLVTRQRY

B1: MAb 5E12-B7 (antibody, V domains shown)
VH: QVQLQHPGTEVVKPGASVKLSCKASGYTFTNYWMHWVKQRPGQGLEWIGNIDPSNGGTNYNEKFKSKATLTVDKSSSTAYMQLSSLTSEDSAVYYCASFAYWGQGTLVTVSA
VL: DIQMTQSPASLSASVGETVTITCRASGNIHNYLAWYQQKQGKSPQLLVYNAKTLADGVPSRFSGSGSGTQYSLKISSLRPEDFGSYYCQHFWSPPFTFGSGTKLEIK
notes: Biotinylated for the Biacore and Octet assays; also called PYY/NPY antibody (5E12); anti-NPY/PYY antibody 5E12
Regarding B1, the binding result in the test with 1p28-ALRHYINLIT and with 1p30-RHYINLITRQ was “no binding (tested: 1 µg/mL)” in each case. For the same molecule, the Kd with NPY (mouse NPY, Phoenix) was found to be 9.79 nM; in the test with human PYY (Phoenix) it was 5.97 nM. For the same molecule, the koff came out at 0.00142 s⁻¹ in the test with NPY (mouse NPY, Phoenix) and 0.00138 s⁻¹ with human PYY (Phoenix). Also, the kon was 149000 M⁻¹ s⁻¹ with NPY (mouse NPY, Phoenix) and 251000 M⁻¹ s⁻¹ with human PYY (Phoenix).
